Patent US20240376207A1 (JIANGSU HENGRUI PHARMACEUTICALS, published 2024)
Each block holds one binder with its values, some of them ahead of it.

How the values were obtained:
[1] = target: T1, human IgG1 Fc-tagged mouse PVRIG (m-PVRIG-hIgG1 Fc) (mouse, UniProt A0A1B0GS01 35-165); experiment: ELISA, coated antigen
T1 construct: bought from Acrobiosystems; also called Mouse PVRIG-Fc; mouse PVRIG recombinant protein; not shown: human IgG1 Fc tag of the Acrobiosystems product, and any linker to it
T1 sequence: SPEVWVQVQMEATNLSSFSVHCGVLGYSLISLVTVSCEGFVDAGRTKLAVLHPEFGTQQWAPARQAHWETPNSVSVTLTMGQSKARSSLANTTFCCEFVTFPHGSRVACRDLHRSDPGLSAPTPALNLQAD
Description: ELISA assay was used to detect binding properties of anti-PVRIG antibodies. […] After the antibody was added, the activity of the binding of the antibody to the antigen was detected by adding a secondary antibody (HRP-conjugated anti-primary antibody Fc antibody) and HRP substrate TMIB.
A human, cynomolgus monkey, or mouse PVRIG protein (at a concentration of 1 μg/mL) was coated on a 96-well microplate at 100 μL per well, and incubated overnight at 4° C. The plate was washed three times with wash buffer at 250 μL per well. For each wash, the plate was shaken for 10 s to ensure adequate cleaning. A blocking solution (PBS+0.05% Tween20+1% BSA) was added at 300 μL/well, and the plate was incubated at room temperature for 1 h. The plate was washed three times with wash buffer at 250 μL per well. For each wash, the plate was shaken for 10 s to ensure adequate cleaning. Dilutions of the test anti-PVRIG antibodies were added at 100 μL/well. The plate was incubated at 37° C. for 1 h. The plate was washed three times with wash buffer at 250 μL per well. The […] anti-human IgG secondary antibody (Sigma, A8667) was added at 100 μL per well. The plate was incubated at 37° C. for 1 h. The plate was washed three times with wash buffer at 250 μL per well. TMB was added at 100 μL/well, and the plate was incubated in the dark for 15 min. 0.16 M sulfuric acid was added at 50 μL/well. The OD values at 450 nm were read by using a Thermo MultiSkanFc microplate reader, and the EC₅₀ values of the binding of the anti-PVRIG antibodies to PVRIG were calculated.

[2] = target: T2, human PVRIG expressed on cells (human, UniProt Q6DKI7 41-326); experiment: cell-based or functional assay
T2 sequence (looked up): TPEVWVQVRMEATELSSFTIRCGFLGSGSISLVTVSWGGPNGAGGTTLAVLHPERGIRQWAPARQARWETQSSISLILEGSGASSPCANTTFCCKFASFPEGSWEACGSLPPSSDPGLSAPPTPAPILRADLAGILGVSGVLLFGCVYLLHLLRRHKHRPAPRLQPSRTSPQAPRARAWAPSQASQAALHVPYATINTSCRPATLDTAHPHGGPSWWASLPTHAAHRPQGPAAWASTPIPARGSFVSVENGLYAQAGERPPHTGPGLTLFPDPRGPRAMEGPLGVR

[3] = target: T3, cynomolgus monkey PVRIG expressed on cells (cynomolgus monkey, UniProt A0A2K5WVV8 1-322); experiment: FACS, cells overexpressing target
T3 construct: whole, on cells; also called Monkey PVRIG FACS; cells overexpressing cynomolgus monkey PVRIG
T3 sequence: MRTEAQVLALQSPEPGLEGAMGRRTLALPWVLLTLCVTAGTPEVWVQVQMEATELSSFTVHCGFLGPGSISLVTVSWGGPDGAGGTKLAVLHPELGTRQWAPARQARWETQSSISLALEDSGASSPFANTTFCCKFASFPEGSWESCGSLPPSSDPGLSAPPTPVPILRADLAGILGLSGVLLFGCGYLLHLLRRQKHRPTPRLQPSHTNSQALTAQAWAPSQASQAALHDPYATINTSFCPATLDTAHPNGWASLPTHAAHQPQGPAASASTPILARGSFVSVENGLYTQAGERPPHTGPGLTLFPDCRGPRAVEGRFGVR

[4] = target: T2, human PVRIG expressed on cells; experiment: cell-based or functional assay; remark: listed apart in the source

B4: anti-PVRIG antibody 39 (antibody, human IgG4 S228P, F234A L235A, V domains shown)
VH: QVQLVESGGGSVQAGGSLRLSCAASRYTSRTDCMGWFRQAPGKEREGVAHIDSDGIPRYVESVKGRFTISQDHAKNTLYLQMNSLKPEDSATYYCVVGFKFGDYCAPNDWGQGTQVTVSS
notes: no light chain
- binding result [1]: no binding

B5: anti-PVRIG antibody 151 (antibody, human IgG4 S228P, F234A L235A, V domains shown)
VH: HVQLVESGGGSVQAGGSLRLSCVASASGFTYRPYCMAWFRQAPGKEREAVAGIDIFGGTTYADSVKGRFTASRDNAGFSLFLQMNDLKPEDTAMYYCAAGDSPDGRCPPLGQGLNYWGQGTQVTVSS
notes: no light chain
- binding result [1]: no binding
- reporter gene activity, fold of the positive antibody Tab5 [2]: 3.7 to 18.5 fold

B7: anti-PVRIG antibody 30 (antibody, human IgG4 S228P, F234A L235A, V domains shown)
VH: HVQLVESGGGSVQAGGSLRLSCEASGYSYSGDCMGWFRRAPGKERDEGVATIDNAGRIKYADSVKGRFTISHGNGKYILYLQMNSLKPEDTDMYYCAAGWTFGGNCSPADWGQGTQVTVSS
notes: no light chain
- NK92 killing of K562, killing activity (%), 4 nM antibody [4]: 10.4%
- NK92 killing of K562, killing activity (%), 20 nM antibody [4]: 11.9%
- NK92 killing of K562, killing activity (%), 100 nM antibody [4]: 13.3%
- binding result [1]: no binding

More lines, main results first:

- binding result [1]: no binding
- reporter gene activity, fold of the positive antibody Tab5 [2]: 3.7 to 18.5 fold
B1: anti-PVRIG antibody 38 (antibody, human IgG4 S228P, F234A L235A, V domains shown)
VH: QVQLVESGGGSVQAGGSLRLSCAASPSTYGPSDMAWFRQAPGKQREGVATISAAGRLTYYTDSVRGRFTISRDNAKNTMYLQMNSLKPEDTAMYYCAADFAGGSSLFADYKYWGQGTQVTVSS
notes: no light chain

- EC50 [3]: 0.07 nM
B2: humanized anti-PVRIG/TIGIT bispecific antibody 1708-20H5 (bispecific antibody, human IgG4 S228P, kappa)
heavy: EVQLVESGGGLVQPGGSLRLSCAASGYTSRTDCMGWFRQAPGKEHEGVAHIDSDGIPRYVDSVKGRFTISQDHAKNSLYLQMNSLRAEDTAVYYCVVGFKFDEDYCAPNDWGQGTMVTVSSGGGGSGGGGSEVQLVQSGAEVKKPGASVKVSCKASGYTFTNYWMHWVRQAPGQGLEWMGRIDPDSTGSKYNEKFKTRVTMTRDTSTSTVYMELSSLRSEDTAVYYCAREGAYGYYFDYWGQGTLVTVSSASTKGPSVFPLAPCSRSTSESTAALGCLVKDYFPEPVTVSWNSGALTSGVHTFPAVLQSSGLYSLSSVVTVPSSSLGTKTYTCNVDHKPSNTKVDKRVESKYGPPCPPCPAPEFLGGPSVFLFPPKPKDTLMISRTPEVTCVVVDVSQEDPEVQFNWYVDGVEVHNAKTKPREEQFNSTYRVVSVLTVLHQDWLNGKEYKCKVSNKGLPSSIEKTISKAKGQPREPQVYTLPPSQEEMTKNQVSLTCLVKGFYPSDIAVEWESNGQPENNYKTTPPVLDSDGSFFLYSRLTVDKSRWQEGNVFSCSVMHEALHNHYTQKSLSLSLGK
light: DIQMTQSPSSLSASVGDRVTITCRASENIYSYLAWYQQKPGKSPKLLIYNARTLAEGVPSRFSGSGSGTDFTLTISSLQPEDFATYYCQYHSGSPLPFGGGTKVEIKRTVAAPSVFIFPPSDEQLKSGTASVVCLLNNFYPREAKVQWKVDNALQSGNSQESVTEQDSKDSTYSLSSTLTLSKADYEKHKVYACEVTHQGLSSPVTKSFNRGEC

- EC50 [3]: 3.54 nM
B3: humanized anti-PVRIG/TIGIT bispecific antibody 1708-30H2 (bispecific antibody, human IgG4 S228P, kappa)
heavy: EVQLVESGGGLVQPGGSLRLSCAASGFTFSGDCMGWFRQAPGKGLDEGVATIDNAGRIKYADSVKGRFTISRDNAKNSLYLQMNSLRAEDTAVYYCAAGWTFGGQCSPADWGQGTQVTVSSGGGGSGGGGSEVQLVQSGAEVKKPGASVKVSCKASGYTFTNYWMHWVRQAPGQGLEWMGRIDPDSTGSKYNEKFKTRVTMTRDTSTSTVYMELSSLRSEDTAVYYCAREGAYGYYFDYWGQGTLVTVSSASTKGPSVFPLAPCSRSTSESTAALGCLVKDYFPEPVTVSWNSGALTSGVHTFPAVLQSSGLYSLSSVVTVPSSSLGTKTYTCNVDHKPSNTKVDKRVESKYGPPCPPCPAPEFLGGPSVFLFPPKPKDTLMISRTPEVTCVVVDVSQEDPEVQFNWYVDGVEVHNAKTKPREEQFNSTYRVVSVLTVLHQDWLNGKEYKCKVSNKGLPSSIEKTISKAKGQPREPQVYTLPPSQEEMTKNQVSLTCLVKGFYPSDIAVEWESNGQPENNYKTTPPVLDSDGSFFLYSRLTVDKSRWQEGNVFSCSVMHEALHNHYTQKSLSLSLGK
light: B2 light

- binding result [1]: no binding
B6: positive antibody Tab5 (antibody, human IgG4 S228P, kappa, F234A L235A, V domains shown)
VH: EVQLVESGGGVVKPGGSLRLSCAASGFTFGTSSMNWVRQAPGKGLEWVAVISFDGTEIHYADSVKGRFTISRDNSKSTVFLQMNSLRPDDTALYYCAKGSGNIYFYSGMDVWGQGTTVTVSS
VL: DIQMTQSPSTLSASVGDRVTITCRAGQSISGWLAWFQQKPGKAPNLLIYETSTLESGVPSRFSGSGSGTEYTLTISSLQPDDFATYYCQQYYSYPLTFGQGTKVEIKR
notes: Variable regions of CPA.7.021 (WO2016134333A1) on human IgG4 (S228P/F234A/L235A/K447A) and human kappa constant regions
- NK92 killing of K562, killing activity (%), 4 nM antibody [4]: 5.9%
- NK92 killing of K562, killing activity (%), 20 nM antibody [4]: 7.9%
- NK92 killing of K562, killing activity (%), 100 nM antibody [4]: 10%
